# Laboratory results: US20240309087A1 (SHANGHAI JUNSHI BIOSCIENCES, published 2024)
# Positions count from the first letter of the chain named. Values joined by “and” are separate entries in the source; they are usually repeats but may differ in a detail not shown here. Equal entries are not always repeated.
# T1: human CD112R on Jurkat CD112R effector cells (human, UniProt Q6DKI7 1-326)
# T1 sequence (looked up): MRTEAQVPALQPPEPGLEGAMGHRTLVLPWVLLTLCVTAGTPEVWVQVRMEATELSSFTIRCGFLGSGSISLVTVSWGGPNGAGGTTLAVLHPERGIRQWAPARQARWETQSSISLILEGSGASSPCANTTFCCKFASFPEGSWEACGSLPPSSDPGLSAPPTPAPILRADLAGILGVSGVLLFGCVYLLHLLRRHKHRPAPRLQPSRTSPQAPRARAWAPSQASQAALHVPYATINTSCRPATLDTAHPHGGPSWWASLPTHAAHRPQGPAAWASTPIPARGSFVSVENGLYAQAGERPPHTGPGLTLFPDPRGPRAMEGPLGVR
# T2: hCD112R mFC recombinant protein (human; murine, UniProt Q6DKI7 41-160)
# T2 construct: range 41-160; expressed in 293E cells; also called hCD112R ECD mFC; hCD112R-ECD-mFC; not shown: murine IgG2a Fc domain (MX2-mFc vector)
# T2 sequence (looked up): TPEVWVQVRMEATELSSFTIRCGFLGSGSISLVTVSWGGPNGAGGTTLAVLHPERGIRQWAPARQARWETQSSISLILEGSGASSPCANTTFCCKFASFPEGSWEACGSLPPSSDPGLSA
# B1: Hu37 (antibody, IgG4, V domains shown)
# VH: EVQLVESGGGLVQPGGSLRLSCAASGFTFSSYHMSWVRQAPGKGLELVSAINSNVISTYYLDTVKGRFTISRDNAKNSLYLQMNSLRAEDTAVYYCARHEDYYGFAMDYWGQGTLVTVSS
# VL: DIVMTQSPDSLAVSLGERATINCKASQSVTNDVAWYQQKPGQPPKLLIYYVSNHYTGVPDRFSGSGSGTDFTLTISSLQAEDVAVYFCQQAYRSPWTFGQGTKLEIK
# B2: Hu18 (antibody, IgG4, V domains shown)
# VH: B1 VH with Q13K, N52S, S53R, N54D, V55G, I56D, L61P, A97S, Y103F, Y109S
# VL: EIVMTQSPPTLSLSPGERVTLSCKASQSVSNDVAWYQQKPGQAPRLLIYYVSNRFTGIPARFSGSGSGTDFTLTISSLQPEDFAVYFCQQAYRSPWTFGQGTKLEIK
# notes: humanized IgG4
# B3: Hu4 (antibody, IgG4, V domains shown)
# VH: B1 VH with S49A, V55D, S57N, N74I
# VL: B1 VL with T30S, N53H, H54R, Y55F, Q89H
# notes: humanized IgG4; also called Hu-04
# B4: Hu41 (antibody, IgG4, V domains shown)
# VH: B1 VH
# VL: DIQMTQSPSSLSASVGDRVTITCKASQSVSNDVAWYQQKPGKAPKLLIYYVSNRFTGVPSRFSGSGSGTDFTLTISSLQPEDFATYFCQQAYRSPWTFGQGTKLEIK
# B5: Hu7 (antibody, IgG4, V domains shown)
# VH: B1 VH with Q13K, V55D, S57N, N74I
# VL: B1 VL
# notes: humanized IgG4; also called Hu-07
# B6: Hu45 (antibody, IgG4, V domains shown)
# VH: B1 VH with Q13K
# VL: B2 VL with Q38E, N53H, F87Y, Q89H
# B7: Hu42 (antibody, IgG4, V domains shown)
# VH: B1 VH
# VL: B2 VL
# B8: Hu40 (antibody, IgG4, V domains shown)
# VH: B1 VH
# VL: B1 VL with T30S, N53H, H54R, Y55F, Q89H
# B9: Hu31 (antibody, IgG4, V domains shown)
# VH: EVQLVESGGGLVQPGGSLRLSCAASGFTFSSYHMSWVRQAPGKGLELVAAISRDGDSTYYPDTVKGRFTISRDDAENSLYLQMNSLRAEDTAVYYCSRHEDYFGFAMDSWGQGTLVTVSS
# VL: B1 VL
# notes: humanized IgG4
# B10: Hu39 (antibody, IgG4, V domains shown)
# VH: B1 VH
# VL: B2 VL with Q38E, N53H, F87Y, Q89H
# B11: Hu10 (antibody, IgG4, V domains shown)
# VH: B1 VH with Q13K, V55D, S57N, N74I
# VL: B1 VL with T30S, N53H, H54R, Y55F, Q89H
# notes: humanized IgG4
# B12: Hu1 (antibody, IgG4, V domains shown)
# VH: B1 VH with S49A, V55D, S57N, N74I
# VL: B1 VL
# notes: humanized IgG4; also called Hu-01
# B13: Hu47 (antibody, IgG4, V domains shown)
# VH: B1 VH with Q13K
# VL: B4 VL
# B14: Hu13 (antibody, IgG4, V domains shown)
# VH: B9 VH with Q13K, A49S, D74N, E76K
# VL: B1 VL
# notes: humanized IgG4
# B15: Hu38 (antibody, IgG4, V domains shown)
# VH: B1 VH
# VL: B4 VL with D1A, S30T, R54H, F55Y
# B16: Hu25 (antibody, IgG4, V domains shown)
# VH: B9 VH with D74N, E76K
# VL: B1 VL
# notes: humanized IgG4
# B17: Hu48 (antibody, IgG4, V domains shown)
# VH: B1 VH with Q13K
# VL: B2 VL
# B18: Hu43 (antibody, IgG4, V domains shown)
# VH: B1 VH with Q13K
# VL: B1 VL
# B19: Hu46 (antibody, IgG4, V domains shown)
# VH: B1 VH with Q13K
# VL: B1 VL with T30S, N53H, H54R, Y55F, Q89H
# B20: Hu19 (antibody, IgG4, V domains shown)
# VH: B9 VH with Q13K, A49S
# VL: B1 VL
# notes: humanized IgG4
# B21: Hu44 (antibody, IgG4, V domains shown)
# VH: B1 VH with Q13K
# VL: B4 VL with D1A, S30T, R54H, F55Y
# Molecular target: T1, human CD112R on Jurkat CD112R effector …
# Experiment: cell-based or functional assay
"EC50, CD112R/CD112 reporter","Relative activity (%), EC50 COM701/EC50 antibody",Binder
0.0355 µg/mL,182%,B1
0.0263 µg/mL,209%,B2
0.0385 µg/mL,186%,B3
0.0267 µg/mL,243%,B4
0.144 µg/mL,48.6%,B5
0.0256 µg/mL,261%,B6
0.0355 µg/mL,183%,B7
0.0242 µg/mL,227%,B8
0.0507 µg/mL,110%,B9
0.0217 µg/mL,254%,B10
0.0377 µg/mL,199%,B11
0.0688 µg/mL,92%,B12
0.039 µg/mL,190%,B13
0.0252 µg/mL,192%,B14
0.0337 µg/mL,192%,B15
0.0412 µg/mL,157%,B16
0.0421 µg/mL,176%,B17
0.0426 µg/mL,158%,B18
0.0269 µg/mL,249%,B19
0.0404 µg/mL,127%,B20
0.0387 µg/mL,174%,B21

# Molecular target: T2, hCD112R mFC recombinant protein
# Experiment: ELISA, coated hCD112R-ECD-mFC
# Method: (§1) A plate was coated with a hCD112R-ECD-mFC protein (1.5 μg/mL) at a fixed concentration, and the humanized anti-CD112R antibodies diluted in a gradient (initial concentration: 1 μg/mL, 2.5-fold gradient dilution, 12 concentration gradients in total) were added to bind to the antigen. HRP-conjugated goat anti-human antibody IgG (Fc specific) (Sigma, A0170) was subjected to a 5000-fold dilution and used as a detection antibody for detection. The color development was performed with 0.1 mg/mL TMB, and finally stopped with 2 M hydrochloric acid. The plate was read at 420 nm/620 nm. EC₅₀ was obtained by fitting with a four-parameter logistic regression (4PL) model. The […] were COM701 (anti-CD112R antibody, Compugen, obtained by expression and purification according to the sequences in US20180280506A1) and the anti-KLH hu-IgG4 antibody.
row,EC50,Binder
1,0.00466 µg/mL,B2
2,0.00295 µg/mL,B3
3,0.00432 µg/mL,B5
4,0.00339 µg/mL,B9
5,0.00257 µg/mL,B11
6,0.00276 µg/mL,B12
7,0.00433 µg/mL,B14
8,0.00403 µg/mL,B16
9,0.00411 µg/mL,B20

# Molecular target: T2, hCD112R mFC recombinant protein
# Experiment: FACS competition, hCD112R mFc on CHO CD112 cells
# Method: (§2) Cells CHO CD112 overexpressing human CD112 were co-incubated with a hCD112R mFc protein solution (5 μg/mL) prepared in a staining buffer (PBS+1% FBS), and the humanized anti-CD112R antibodies or the control antibodies at different concentrations (initial concentration: 100 μg/mL, 3-fold dilution, 10 concentration gradients) at 4° C. for 30 min. Unbound antibodies were then washed with a staining buffer and the cells were incubated with 1% (v/v) goat anti-mouse IgG Fc fluorescent secondary antibodies (Jackson ImmunoResearch) prepared in a staining buffer at 4° C. for 30 min in the dark. Finally, the cells were collected by using a flow cytometer (BD Canto II), and the fluorescent antibodies bound to the cell surface were detected. Raw data were analyzed by using FlowJo to obtain MFI values, and a four-parameter curve fitting was performed by using GraphPad Prism software to obtain IC₅₀ values. The positive control and the negative control were COM701 (anti-CD112R antibody, Compugen, obtained by expression and purification according to the sequences in US20180280506A1) and the anti-KLH hu-IgG4 antibody, respectively.
row,IC50,Binder
1,3.39 µg/mL and 2.51 µg/mL,B2
2,4.22 µg/mL,B3
3,5.06 µg/mL,B5
4,2.52 µg/mL,B9
5,4.17 µg/mL,B11
6,4.31 µg/mL,B12
7,2.19 µg/mL,B14
8,3.7 µg/mL,B16
9,2.48 µg/mL,B20

# Molecular target: T2, hCD112R mFC recombinant protein
# Experiment: ELISA, coated hCD112R-ECD-mFC; EC50 COM701/EC50 antibody
# Method: as §1
row,Relative activity (%),Binder
1,122%,B2
2,144%,B3
3,91%,B5
4,179%,B9
5,153%,B11
6,154%,B12
7,132%,B14
8,165%,B16
9,139%,B20

# Molecular target: T2, hCD112R mFC recombinant protein
# Experiment: FACS competition, hCD112R mFc on CHO CD112 cells; IC50 COM701/IC50 antibody
# Method: as §2
row,Relative activity (%),Binder
1,94.2%,B3
2,78.6%,B5
3,142%,B9
4,95.5%,B11
5,92.2%,B12
6,164%,B14
7,97%,B16
8,144%,B20
